Tests used:
[1] = molecular target: T1, C5 peptide 45-124 fused to GST-tag (human, UniProt P01031 45-124); experiment: Western blot of E. coli lysates expressing GST-fused MG1-MG2-derived fragments; rhC5 (0.5 ug) as control lane
T1 construct: not shown: GST-tag (glutathione S-transferase); vector and linker not restated

[2] = molecular target: T2, C5 peptide 45-111 fused to GST-tag (human, UniProt P01031 45-111); experiment: as above
T2 construct: not shown: GST-tag (glutathione S-transferase); vector and linker not restated

[3] = molecular target: T3, C5 peptide 52-124 fused to GST-tag (human, UniProt P01031 52-124); experiment: as above
T3 construct: not shown: GST-tag (glutathione S-transferase); vector and linker not restated

[4] = molecular target: T4, C5 peptide 33-111 fused to GST-tag (human, UniProt P01031 33-111); experiment: as above
T4 construct: not shown: GST-tag (glutathione S-transferase); vector and linker not restated

[5] = molecular target: T5, C5 peptide 33-108 fused to GST-tag (human, UniProt P01031 33-108); experiment: as above
T5 construct: not shown: GST-tag (glutathione S-transferase); vector and linker not restated

[6] = molecular target: T6, recombinant cynomolgus monkey C5 (cynomolgus monkey, UniProt P01031 20-1676 (human entry), limits assumed); experiment: SPR (Biacore), 37C, pH 7.4, Ab captured on ProA/G
T6 construct: also called cynoC5
T6 chain: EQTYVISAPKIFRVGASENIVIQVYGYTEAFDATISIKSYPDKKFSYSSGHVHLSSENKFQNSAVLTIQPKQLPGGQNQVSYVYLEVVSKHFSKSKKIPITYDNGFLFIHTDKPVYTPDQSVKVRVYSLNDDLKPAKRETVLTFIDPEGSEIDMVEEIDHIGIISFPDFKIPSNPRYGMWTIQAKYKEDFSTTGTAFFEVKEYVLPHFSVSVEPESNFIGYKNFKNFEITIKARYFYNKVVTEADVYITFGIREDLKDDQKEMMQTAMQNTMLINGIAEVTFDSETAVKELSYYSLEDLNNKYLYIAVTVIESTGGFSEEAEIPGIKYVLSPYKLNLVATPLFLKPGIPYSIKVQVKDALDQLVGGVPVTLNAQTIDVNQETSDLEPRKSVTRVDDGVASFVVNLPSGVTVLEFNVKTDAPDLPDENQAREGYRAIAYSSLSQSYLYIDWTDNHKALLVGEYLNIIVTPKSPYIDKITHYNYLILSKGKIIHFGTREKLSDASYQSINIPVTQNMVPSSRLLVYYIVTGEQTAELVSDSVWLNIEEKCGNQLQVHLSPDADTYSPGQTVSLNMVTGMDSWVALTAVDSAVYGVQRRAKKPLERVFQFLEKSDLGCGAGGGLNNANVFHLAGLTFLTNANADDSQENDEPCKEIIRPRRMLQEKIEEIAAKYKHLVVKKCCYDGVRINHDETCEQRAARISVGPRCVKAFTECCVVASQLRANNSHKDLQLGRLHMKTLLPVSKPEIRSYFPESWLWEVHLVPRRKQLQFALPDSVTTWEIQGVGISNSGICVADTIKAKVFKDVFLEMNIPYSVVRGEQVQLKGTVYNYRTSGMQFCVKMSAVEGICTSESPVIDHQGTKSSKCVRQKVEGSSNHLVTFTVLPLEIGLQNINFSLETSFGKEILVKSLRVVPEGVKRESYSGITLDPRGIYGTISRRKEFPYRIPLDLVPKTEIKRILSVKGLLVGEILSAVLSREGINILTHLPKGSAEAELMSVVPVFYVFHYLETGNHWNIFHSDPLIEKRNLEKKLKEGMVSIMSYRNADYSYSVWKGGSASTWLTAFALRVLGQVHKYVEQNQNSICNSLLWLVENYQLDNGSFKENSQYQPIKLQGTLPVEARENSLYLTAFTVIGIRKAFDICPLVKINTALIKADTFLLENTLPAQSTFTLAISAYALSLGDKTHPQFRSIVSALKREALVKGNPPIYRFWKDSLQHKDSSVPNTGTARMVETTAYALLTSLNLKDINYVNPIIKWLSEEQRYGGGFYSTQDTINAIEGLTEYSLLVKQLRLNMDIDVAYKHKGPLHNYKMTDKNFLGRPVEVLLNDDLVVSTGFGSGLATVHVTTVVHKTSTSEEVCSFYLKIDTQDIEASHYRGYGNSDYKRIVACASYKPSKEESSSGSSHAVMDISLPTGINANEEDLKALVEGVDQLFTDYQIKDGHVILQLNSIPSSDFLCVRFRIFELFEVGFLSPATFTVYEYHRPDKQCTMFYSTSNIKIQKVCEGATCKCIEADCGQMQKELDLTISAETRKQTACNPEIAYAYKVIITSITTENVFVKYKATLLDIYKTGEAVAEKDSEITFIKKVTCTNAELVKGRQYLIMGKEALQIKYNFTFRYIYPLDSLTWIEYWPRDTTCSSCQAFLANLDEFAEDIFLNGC
Protocol: (§1) To observe the cross-reactivity of anti-C5 antibodies against human C5 (hC5) and cynomolgus monkey C5 (cynoC5), BIACORE® kinetics analysis was performed.

481-660 [7] = molecular target: T7, 481-660; experiment: Western blot of E. coli lysates expressing GST-fused C5 beta-chain fragments
T7 construct: Expressed in E. coli
Protocol: (§2) Anti-C5 monoclonal antibodies (MAbs) were tested for binding to C5 β-chain-derived peptides in Western blot analysis. […] The E. coli samples were harvested after incubation with 1 mM Isopropyl β-D-1-thiogalactopyranoside (IPTG) for 5 hours at 37° C., and centrifuged at 20000×g for 1 min to obtain pellets.
T7 GST fusion polypeptide: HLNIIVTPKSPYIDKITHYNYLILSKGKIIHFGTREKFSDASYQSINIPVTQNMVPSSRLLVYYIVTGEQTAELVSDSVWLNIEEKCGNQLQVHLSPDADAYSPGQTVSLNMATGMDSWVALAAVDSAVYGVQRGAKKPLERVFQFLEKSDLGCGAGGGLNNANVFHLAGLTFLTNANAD

321-500 [8] = molecular target: T8, 321-500; experiment: as above
T8 construct: Expressed in E. coli
Protocol: as §2
T8 GST fusion polypeptide: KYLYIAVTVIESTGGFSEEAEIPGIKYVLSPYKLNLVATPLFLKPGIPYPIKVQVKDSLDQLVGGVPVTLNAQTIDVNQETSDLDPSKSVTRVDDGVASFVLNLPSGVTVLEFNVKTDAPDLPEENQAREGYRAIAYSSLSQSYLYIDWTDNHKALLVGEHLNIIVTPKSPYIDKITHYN

161-340 [9] = molecular target: T9, 161-340; experiment: as above
T9 construct: Expressed in E. coli
Protocol: as §2
T9 GST fusion polypeptide: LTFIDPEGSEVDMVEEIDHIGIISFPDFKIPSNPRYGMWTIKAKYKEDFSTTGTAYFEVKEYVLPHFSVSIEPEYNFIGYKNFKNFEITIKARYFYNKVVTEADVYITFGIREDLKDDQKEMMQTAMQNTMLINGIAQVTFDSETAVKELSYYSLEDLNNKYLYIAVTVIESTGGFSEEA

481-660 [10] = molecular target: T7, 481-660; experiment: summary drawing of the binding reactions to C5 beta-chain fragments
321-500 [11] = molecular target: T8, 321-500; experiment: as above
[12] = molecular target: T1, C5 peptide 45-124 fused to GST-tag; experiment: as above
[13] = molecular target: T2, C5 peptide 45-111 fused to GST-tag; experiment: as above
161-340 [14] = molecular target: T9, 161-340; experiment: as above
[15] = molecular target: T3, C5 peptide 52-124 fused to GST-tag; experiment: as above
[16] = molecular target: T4, C5 peptide 33-111 fused to GST-tag; experiment: as above
[17] = molecular target: T5, C5 peptide 33-108 fused to GST-tag; experiment: as above
[18] = molecular target: T6, recombinant cynomolgus monkey C5; experiment: SPR (Biacore), 37C, pH 7.4
Protocol: as §1

[19] = molecular target: T6, recombinant cynomolgus monkey C5; experiment: SPR (Biacore), pH 7.4; KD on cynoC5 against KD on hC5
Protocol: as §1

T1 sequence (P01031 45-124): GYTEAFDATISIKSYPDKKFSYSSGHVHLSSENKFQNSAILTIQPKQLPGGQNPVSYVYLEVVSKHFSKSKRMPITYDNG
T2 sequence (P01031 45-111): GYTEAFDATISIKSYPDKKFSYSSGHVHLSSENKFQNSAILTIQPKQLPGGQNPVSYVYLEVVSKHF
T5 sequence (P01031 33-108): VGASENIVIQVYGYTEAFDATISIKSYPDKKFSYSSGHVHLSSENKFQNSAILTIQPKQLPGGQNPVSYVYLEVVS
T4 sequence (P01031 33-111): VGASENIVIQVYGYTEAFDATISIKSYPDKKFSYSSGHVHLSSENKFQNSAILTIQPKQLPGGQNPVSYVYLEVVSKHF
T3 sequence (P01031 52-124): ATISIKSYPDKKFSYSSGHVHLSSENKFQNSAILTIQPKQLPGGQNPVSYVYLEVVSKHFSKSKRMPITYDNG

Binder	binding result [1]	binding result [2]	binding result [3]	binding result [4]	binding result [5]	Kd [6] [nM]	binding result (481-660 [7])	binding result (321-500 [8])	binding result (161-340 [9])	binding result (481-660 [10])	binding result (321-500 [11])	binding result [12]	binding result [13]	binding result (161-340 [14])	binding result [15]	binding result [16]	binding result [17]	fold weaker KD toward cynoC5 than toward hC5 [18] [fold]	fold weaker KD toward cynoC5 than toward hC5 [19] [times]
CFA0305 (antibody, V domains shown, Chimeric, rabbit V regions; also called CFA0305-F760G4) VH: QSLEESGGDLVKPGASLAVTCTASGFSSSSSYYMCWVRQAPGKGLEWIGCIYTGSGATYYASWAKGRFTISKTSSTTVTLQMTSLTVADTATYFCASDGGYVTPTHAMYLWGPGTLVTVSS VL: DVVMTQTPASVSAAVGGTVTIKCQASQNIGSDLAWYQQKPGQPPRLLIYGASKLASGVSSRFSGSGSGKEFTLTISDLECADAVTYYCQCTFVGSSYGNAFGGGTEVVVK	no binding	no binding	no binding	no binding	no binding	55.4	no binding	no binding	no binding										
CFA0366 (antibody, V domains shown, Chimeric, rabbit V regions; also called CFA0366-F760G4) VH: QSLEESGGDLVKPGASLSLTCTAAGLDFSSSYYMCWVRQAPGKGLEWIACIYAGSSGIIYYANWAKGRFTISRPSSTTVTLQMTSLTAADTATYFCATYPTYGDGGHAFNLWGPGTLVTVSS VL: AQVLTQTPSSVSAAVGGTVTINCQSSQSVYSSDYLSWYQQKPGQPPKLLIYEASKLASGVPPRFSGSGSGTQFTLTISGVQCDDAATYYCQGTYYSSGWYFAFGGGTEVVVK						17.9				no binding	no binding	no binding	no binding	no binding	no binding	no binding	no binding		
CFA0672 (antibody, V domains shown, Chimeric, rabbit V regions; also called CFA0672-F760G4) VH: QSVEESGGRLVTPGTPLTLTCTASGFSLSGNAINWVRQAPGKGLEWIGCIYTGSDTTYYATWAKGRFTISKTSTTVDLKIASPTTEDTATYFCARGSGLWGPGTLVTVSS VL: DVVMTQTPASVSAPVGGTVTIKCQASQNIYSLLAWYQQKPGQPPKLLIYHTSDLASGVPSRFRGSGSGTEFTLTISDLECADAATYYCQCTAYGSSDVGGTFGGGTTVVVE						2.88	no binding	no binding	no binding			no binding	no binding		no binding	no binding	no binding	8	8

— patent publication US20180002415A1 (Chugai, published 2018)
